From patent publication US20040120947A1
pKd: −log10 of the molar value.

Target: soluble His-tagged Apo-2L (UniProt P50591)
Test: KinExA; column head 'Affinity (pM)'

UniProt P50591, sequence (P50591 114-281 limits assumed): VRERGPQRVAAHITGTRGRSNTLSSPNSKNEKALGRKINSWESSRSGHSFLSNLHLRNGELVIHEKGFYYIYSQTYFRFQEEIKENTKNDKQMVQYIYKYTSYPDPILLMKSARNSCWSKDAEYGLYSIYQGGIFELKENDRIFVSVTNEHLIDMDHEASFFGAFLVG

DR5-IgG (Fc fusion)
pKd: 12.00
